Measured values as given in patent US20100260763A1 (DOMANTIS, published 2010).
Where a chain is given by its changes, count along the chain named.

What was measured:
recombinant human VEGF [1] = target: T1, recombinant human VEGF (human, UniProt P15692-4 27-191, limits assumed, biotinylated in the selections, phage ELISA and BIAcore screening); assay: BIAcore kinetics
T1 construct: also called hVEGF; VEGFA

recombinant human VEGF [2] = target: T1, recombinant human VEGF; assay: receptor binding assay
recombinant human VEGF [3] = target: T1, recombinant human VEGF; assay: RBA assay; taken as the Fc fusion of the row
[4] = target: the molecule itself; assay: analytical ultracentrifugation, sedimentation velocity; monomer/dimer self-association
[5] = target: the molecule itself; assay: analytical ultracentrifugation, sedimentation equilibrium; monomer/dimer self-association
TNFR1-FC fusion [6] = target: T2, TNFR1-FC fusion (human, UniProt P19438 30-211, limits assumed); assay: TNFR1 receptor binding assay: TNFR1-Fc on beads, TNF-alpha 10 ng/ml, ABI 8200; average of 3 experiments
T2 construct: not shown: Fc part, captured by goat anti-human IgG; not described further
T2 sequence (looked up): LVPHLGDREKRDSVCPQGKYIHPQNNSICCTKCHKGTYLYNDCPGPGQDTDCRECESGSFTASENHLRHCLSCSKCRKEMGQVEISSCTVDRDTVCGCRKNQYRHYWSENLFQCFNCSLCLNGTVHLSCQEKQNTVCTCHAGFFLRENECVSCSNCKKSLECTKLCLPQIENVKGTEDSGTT

[7] = target: T3, human TNFR1, soluble recombinant protein (human, UniProt P19438 22-211, limits assumed, biotinylated in the BIAcore assays (coupling via primary amines)); assay: BIAcore 3000, dAb over biotinylated human TNFR1 (1400 RU) on SA chip, 1:1 fit, 25 C, mean of 3 experiments
T3 construct: also called biotinylated TNFR1; human recombinant E. coli-expressed human TNFR1
T3 sequence (looked up): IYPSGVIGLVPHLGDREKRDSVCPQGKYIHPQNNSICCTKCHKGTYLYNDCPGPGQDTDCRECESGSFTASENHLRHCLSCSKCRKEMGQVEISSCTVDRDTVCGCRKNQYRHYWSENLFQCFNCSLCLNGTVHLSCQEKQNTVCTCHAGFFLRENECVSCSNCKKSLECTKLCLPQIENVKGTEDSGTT

TNFR1-FC fusion [8] = target: T2, TNFR1-FC fusion; assay: TNFR-1 receptor binding assay (RBA): inhibition of the binding of TNF-alpha to TNFR1 by the dAb; T0 sample
TNFR1-FC fusion [9] = target: T2, TNFR1-FC fusion; assay: TNFR-1 receptor binding assay (RBA): inhibition of the binding of TNF-alpha to TNFR1 by the dAb; sample after 14 days at 50 C in Britton-Robinson buffer, concentration assumed to be 1 mg/ml
TNFR1 on MRC-5 cells = target: T4, TNFR1 on MRC-5 cells (UniProt P19438 30-455, limits assumed); assay: cell-based or functional assay
T4 sequence (looked up): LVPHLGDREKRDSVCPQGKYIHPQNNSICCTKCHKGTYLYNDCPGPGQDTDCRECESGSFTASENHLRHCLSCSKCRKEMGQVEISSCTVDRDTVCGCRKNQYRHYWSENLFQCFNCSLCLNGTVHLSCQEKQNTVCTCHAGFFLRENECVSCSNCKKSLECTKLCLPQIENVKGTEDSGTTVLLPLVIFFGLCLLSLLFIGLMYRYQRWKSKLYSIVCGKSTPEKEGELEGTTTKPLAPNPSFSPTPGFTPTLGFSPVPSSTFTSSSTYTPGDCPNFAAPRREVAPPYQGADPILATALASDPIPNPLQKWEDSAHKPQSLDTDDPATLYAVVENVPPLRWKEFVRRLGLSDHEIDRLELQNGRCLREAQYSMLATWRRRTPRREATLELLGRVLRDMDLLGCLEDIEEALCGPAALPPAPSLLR

[10] = target: the molecule itself; assay: analytical ultracentrifugation, sedimentation equilibrium; self-association
TNFR1-FC fusion [11] = target: T2, TNFR1-FC fusion; assay: human TNFR1 receptor binding assay; dAb blocks binding of TNF-alpha (10 ng/ml) to bead-captured TNFR1-Fc; four replicates
[12] = target: the molecule itself; assay: analytical ultracentrifugation, sedimentation equilibrium; monomer/dimer self-association; self-association (monomer to dimer) of the dAb by AUC sedimentation equilibrium, 0.5 mg/ml to 5 mg/ml
IL-1R1 = target: T5, IL-1R1 (UniProt P14778 18-332, limits assumed); assay: Receptor Binding Assay, inhibition of IL-1 binding to IL-R1
T5 construct: also called IL-R1
T5 sequence (looked up): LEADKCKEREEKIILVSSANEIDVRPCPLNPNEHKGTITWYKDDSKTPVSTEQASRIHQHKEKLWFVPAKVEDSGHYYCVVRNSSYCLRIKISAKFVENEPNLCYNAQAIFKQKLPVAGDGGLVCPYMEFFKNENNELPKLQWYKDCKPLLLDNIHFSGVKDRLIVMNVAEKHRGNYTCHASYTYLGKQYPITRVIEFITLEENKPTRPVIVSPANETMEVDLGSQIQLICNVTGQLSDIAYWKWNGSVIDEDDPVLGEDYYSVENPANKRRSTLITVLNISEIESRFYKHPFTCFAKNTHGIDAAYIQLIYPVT

T1 sequence (P15692 other isoform, or with tags, fused parts or gaps limits assumed): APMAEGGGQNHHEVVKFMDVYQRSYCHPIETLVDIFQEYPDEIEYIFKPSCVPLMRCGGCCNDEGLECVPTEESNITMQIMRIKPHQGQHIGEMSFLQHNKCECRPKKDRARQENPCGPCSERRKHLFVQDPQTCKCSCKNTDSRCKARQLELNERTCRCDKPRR

B1: DOM15-10 (other)
VL: DIQMTQSPSSLSASVGDRVTITCRASQWIGPELSWYQQKPGKAPKLLIYHTSILQSGVPSRFSGSGSGTDFTLTISSLQPEDFATYYCQQYMFQPRTFGQGTKVEIRR
notes: VK dAb against VEGF
Kd (recombinant human VEGF [1]): 23.6 nM | EC50 (recombinant human VEGF [2]): 10.2 nM

B2: DMS1546 (Fc fusion)
VL: B1 VL
modifications: disulfide-linked homodimer of this chain (bivalent dAb-Fc)
notes: dAb-Fc; also called DOM15-10 Fc fusion; not shown: TVAAPS linker and human IgG1 Fc
Activity (nM), RBA assay (recombinant human VEGF [3]): 0.913 nM

B3: DOM15-10-11 (other)
VL: B1 VL with S34R, R96M, R108G
notes: VK dAb against VEGF, trypsin-selected variant of DOM15-10
Kd (recombinant human VEGF [1]): 14.6 nM | EC50 (recombinant human VEGF [2]): 3.58 nM

B4: DMS1531 (Fc fusion)
VL: B1 VL with S34R, R96M, R108G
modifications: disulfide-linked homodimer of this chain (bivalent dAb-Fc)
notes: dAb-Fc; also called DOM15-10-11 Fc fusion; not shown: TVAAPS linker and human IgG1 Fc
Activity (nM), RBA assay (recombinant human VEGF [3]): 0.577 nM

B5: DOM1h-131-202 (other)
VH: EVQLLESGGGLVQPGGSLRLSCAASGFTFAHETMVWVRQAPGKGLEWVSHIPPDGQDPFYADSVKGRFTISRDNSKNTLYLQMNSLRAEDTAVYYCALLPKRGPWFDYWGQGTLVTVSS
notes: human VH dAb against TNFR1; also called GSK1922567A
Kd [4]: 1000 nM | Kd [5]: 1300 nM | EC50 (TNFR1-FC fusion [6]): 0.11 nM | Kd [7]: 0.55 nM | IC50 (read off the curve) (TNFR1-FC fusion [8]): ~0.1 nM | IC50 (read off the curve) (TNFR1-FC fusion [9]): ~0.1 nM

B6: DOM1h-131-204 (other)
VH: B5 VH with L5S, K101N
ND50 nM, MRC-5 cell-based assay (230307CE) (TNFR1 on MRC-5 cells): 1.89 nM

B7: DOM1h-131-203 (other)
VH: B5 VH with L5W, F106I
ND50 nM, MRC-5 cell-based assay (230307CE) (TNFR1 on MRC-5 cells): 2.28 nM

B8: DOM1h-131-511 (other)
VH: B5 VH with D54V
notes: human VH domain antibody (dAb) against TNFR1; also called GSK1995056A
ND50 nM, MRC-5 cell-based assay (230307CE) (TNFR1 on MRC-5 cells): 1.89 nM | binding result [10]: binds | EC50 (TNFR1-FC fusion [6]): 0.19 nM | Kd [7]: 1.07 nM | IC50 (read off the curve) (TNFR1-FC fusion [11]): ~0.2 nM

B9: DOM1h-131-206 (other)
VH: B5 VH with Y95H
notes: human VH dAb against TNFR1; also called GSK1995057A
ND50 nM, MRC-5 cell-based assay (230307CE) (TNFR1 on MRC-5 cells): 0.71 nM | EC50 (TNFR1-FC fusion [6]): 0.07 nM | Kd [7]: 0.47 nM | IC50 (read off the curve) (TNFR1-FC fusion [11]): ~0.07 nM | Kd [12]: 360000 nM

B10: DOM4-130-54 (other)
VL: DIQMTQSPSSLSASVGDRVTITCRASQDIYLNLDWYQQKPGKAPKLLINFGSELQSGVPSRFSGSGYGTDFTLTISSLQPEDFATYYCQPSFYFPYTFGQGTKVEIKR
notes: VK domain antibody (dAb) against IL-1R1
IC50 (IL-1R1): 0.28 nM

B11: DOM4-130-201 (other)
VL: B10 VL with N49K, S77N, R108W
notes: VK dAb against IL-1R1, trypsin-selected variant of DOM4-130-54
IC50 (IL-1R1): 0.257 nM

B12: DOM4-130-202 (other)
VL: B10 VL with T22S, N49S, F83S, F94Y
notes: as for B11
IC50 (IL-1R1): 0.254 nM
